Experimental data as given in IntAct's records for PubMed 26237645.

B1: Fumarate hydratase, mitochondrial (Homo sapiens), P07954 (parent)
chain: MYRALRLLARSRPLVRAPAAALASAPGLGGAAVPSFWPPNAARMASQNSFRIEYDTFGELKVPNDKYYGAQTVRSTMNFKIGGVTERMPTPVIKAFGILKRAAAEVNQDYGLDPKIANAIMKAADEVAEGKLNDHFPLVVWQTGSGTQTNMNVNEVISNRAIEMLGGELGSKIPVHPNDHVNKSQSSNDTFPTAMHIAAAIEVHEVLLPGLQKLHDALDAKSKEFAQIIKIGRTHTQDAVPLTLGQEFSGYVQQVKYAMTRIKAAMPRIYELAAGGTAVGTGLNTRIGFAEKVAAKVAALTGLPFVTAPNKFEALAAHDALVELSGAMNTTACSLMKIANDIRFLGSGPRSGLGELILPENEPGSSIMPGKVNPTQCEAMTMVAAQVMGNHVAVTVGGSNGHFELNVFKPMMIKNVLHSARLLGDASVSFTENCVVGIQANTERINKLMNESLMLVTALNPHIGYDKAAKIAKTAHKNGSTLKETAIELGYLTAEQFDEWVKPKDMLGPK

Variants of: B1
Details: with h2az_human H2AZ1, P0C0S5
h2az_human H2AZ1, P0C0S5, sequence (P0C0S5 whole entry): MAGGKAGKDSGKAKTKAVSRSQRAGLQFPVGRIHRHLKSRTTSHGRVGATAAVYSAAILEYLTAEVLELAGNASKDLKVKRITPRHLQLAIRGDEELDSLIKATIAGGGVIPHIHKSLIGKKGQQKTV

| Variant | effect of a mutation on the interaction |
| --- | --- |
| T236A | disrupting interaction strength |
| T236D | increasing interaction strength |

Variants of: B1
Details: with h2az_human H2AZ1, P0C0S5
Remark: another data set of the same source

| Variant | effect of a mutation on the interaction |
| --- | --- |
| T236A | decreasing interaction strength |
